B1: B-cell CLL/lymphoma 9 protein (Homo sapiens), O00512 (parent)
chain: MHSSNPKVRSSPSGNTQSSPKSKQEVMVRPPTVMSPSGNPQLDSKFSNQGKQGGSASQSQPSPCDSKSGGHTPKALPGPGGSMGLKNGAGNGAKGKGKRERSISADSFDQRDPGTPNDDSDIKECNSADHIKSQDSQHTPHSMTPSNATAPRSSTPSHGQTTATEPTPAQKTPAKVVYVFSTEMANKAAEAVLKGQVETIVSFHIQNISNNKTERSTAPLNTQISALRNDPKPLPQQPPAPANQDQNSSQNTRLQPTPPIPAPAPKPAAPPRPLDRESPGVENKLIPSVGSPASSTPLPPDGTGPNSTPNNRAVTPVSQGSNSSSADPKAPPPPPVSSGEPPTLGENPDGLSQEQLEHRERSLQTLRDIQRMLFPDEKEFTGAQSGGPQQNPGVLDGPQKKPEGPIQAMMAQSQSLGKGPGPRTDVGAPFGPQGHRDVPFSPDEMVPPSMNSQSGTIGPDHLDHMTPEQIAWLKLQQEFYEEKRRKQEQVVVQQCSLQDMMVHQHGPRGVVRGPPPPYQMTPSEGWAPGGTEPFSDGINMPHSLPPRGMAPHPNMPGSQMRLPGFAGMINSEMEGPNVPNPASRPGLSGVSWPDDVPKIPDGRNFPPGQGIFSGPGRGERFPNPQGLSEEMFQQQLAEKQLGLPPGMAMEGIRPSMEMNRMIPGSQRHMEPGNNPIFPRIPVEGPLSPSRGDFPKGIPPQMGPGRELEFGMVPSGMKGDVNLNVNMGSNSQMIPQKMREAGAGPEEMLKLRPGGSDMLPAQQKMVPLPFGEHPQQEYGMGPRPFLPMSQGPGSNSGLRNLREPIGPDQRTNSRLSHMPPLPLNPSSNPTSLNTAPPVQRGLGRKPLDISVAGSQVHSPGINPLKSPTMHQVQSPMLGSPSGNLKSPQTPSQLAGMLAGPAAAASIKSPPVLGSAAASPVHLKSPSLPAPSPGWTSSPKPPLQSPGIPPNHKAPLTMASPAMLGNVESGGPPPPTASQPASVNIPGSLPSSTPYTMPPEPTLSQNPLSIMMSRMSKFAMPSSTPLYHDAIKTVASSDDDSPPARSPNLPSMNNMPGMGINTQNPRISGPNPVVPMPTLSPMGMTQPLSHSNQMPSPNAVGPNIPPHGVPMGPGLMSHNPIMGHGSQEPPMVPQGRMGFPQGFPPVQSPPQQVPFPHNGPSGGQGSFPGGMGFPGEGPLGRPSNLPQSSADAALCKPGGPGGPDSFTVLGNSMPSVFTDPDLQEVIRPGATGIPEFDLSRIIPSEKPSQTLQYFPRGEVPGRKQPQGPGPGFSHMQGMMGEQAPRMGLALPGMGGPGPVGTPDIPLGTAPSMPGHNPMRPPAFLQQGMMGPHHRMMSPAQSTMPGQPTLMSNPAAAVGMIPGKDRGPAGLYTHPGPVGSPGMMMSMQGMMGPQQNIMIPPQMRPRGMAADVGMGGFSQGPGNPGNMMF

Variants of: B1
Conditions: with ctnb1_human CTNNB1, P35222
ctnb1_human CTNNB1, P35222, sequence (P35222 whole entry): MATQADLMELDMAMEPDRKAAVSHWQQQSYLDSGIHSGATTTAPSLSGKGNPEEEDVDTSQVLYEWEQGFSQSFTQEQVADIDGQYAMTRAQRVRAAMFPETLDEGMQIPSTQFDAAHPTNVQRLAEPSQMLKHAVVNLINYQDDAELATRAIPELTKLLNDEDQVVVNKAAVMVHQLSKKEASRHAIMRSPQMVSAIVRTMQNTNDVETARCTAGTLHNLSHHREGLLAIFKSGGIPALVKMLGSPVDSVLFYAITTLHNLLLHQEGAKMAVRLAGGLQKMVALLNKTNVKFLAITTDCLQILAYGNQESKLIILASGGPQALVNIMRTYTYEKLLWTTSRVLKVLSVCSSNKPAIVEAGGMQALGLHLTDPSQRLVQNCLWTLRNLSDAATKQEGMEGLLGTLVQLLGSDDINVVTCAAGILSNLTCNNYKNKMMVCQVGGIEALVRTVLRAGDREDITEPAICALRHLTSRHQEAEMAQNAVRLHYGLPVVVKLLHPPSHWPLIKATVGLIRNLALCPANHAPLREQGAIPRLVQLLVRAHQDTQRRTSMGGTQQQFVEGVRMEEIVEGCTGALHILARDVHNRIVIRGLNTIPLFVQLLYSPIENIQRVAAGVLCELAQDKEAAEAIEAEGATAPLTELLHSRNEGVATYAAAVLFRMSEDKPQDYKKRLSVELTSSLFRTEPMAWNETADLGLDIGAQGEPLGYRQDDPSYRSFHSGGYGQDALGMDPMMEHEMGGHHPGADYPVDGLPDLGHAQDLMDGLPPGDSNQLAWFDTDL

Variant	effect of a mutation on the interaction
H358A	decreasing interaction
R359A	decreasing interaction

More lines, now with the values ahead:

effect of a mutation on the interaction	Variant
decreasing interaction	L366A
decreasing interaction	I369A

Source: IntAct's records for PubMed 17052462
